Target: the molecule itself
Assay: thin section electron microscopy

B1: FtsZ-mVenus (FtsZ with the YFP variant mVenus fused to the C terminus) (natural protein, E. coli, UniProt P0A9A6 1-383, looked up)
chain: MFEPMELTNDAVIKVIGVGGGGGNAVEHMVRERIEGVEFFAVNTDAQALRKTAVGQTIQIGSGITKGLGAGANPEVGRNAADEDRDALRAALEGADMVFIAAGMGGGTGTGAAPVVAEVAKDLGILTVAVVTKPFNFEGKKRMAFAEQGITELSKHVDSLITIPNDKLLKVLGRGISLLDAFGAANDVLKGAVQGIAELITRPGLMNVDFADVRTVMSEMGYAMMGSGVASGEDRAEEAAEMAISSPLLEDIDLSGARGVLVNITAGFDLRLDEFETVGNTIRAFASDNATVVIGTSLDPDMNDELRVTVVATGIGMDKRPEITLVTNKQVQQPVMDRYQQHGMAPLTQEQKPVAKVVNDNAPQTAKEPDYLDIPAFLRKQAD
- binding result: binds
